Results as given in patent US12472269B2, “Liver-specific inducible promoters and methods of use thereof” (ASKBIO INC., priority 2019, dated 2025).

Key:
Assay type in all cases: cell-based, human
[1] = tested on: AXOL ARE hepatocytes; assay: Luciferase expression from pAAV constructs in AXOL ARE hepatocytes without CITCO, with CITCO and after CITCO withdrawal; details: pAAV vector
Experimental: Luciferase expression from the PB1-MinTK and PB1-2-MinTK constructs in the pAAV vector in AXOL ARE hepatocytes is inducible by CITCO (1 μM) but reduces after removing CITCO as shown in FIG. 5.

[2] = tested on: Huh7 and ARE primary cells; assay: Effect of AAV ITRs: pAAV constructs transfected into Huh7 and ARE primary cells, compared with pGL4.10; details: mean of 3 biological replicates
Description: Following from Example 3, it was decided to take PB1-MinTK and PB1-2-MinTk forward for in vivo studies. To facilitate this the two aforementioned constructs were cloned into pAAV vector (Takara, Clontech) to allow for the preparation of AAV viruses. The inserts where cloned using restriction digest of the pAAV plasmid and PCR amplification of the original pGL4.10 constructs.
We investigated the effect of the Inverted Terminal Repeats (ITRs) on the activity of the promoters. This was done as we have observed interference from the AAV ITRs in other projects. To this end, the pAAV-PB1-MinTk and pAAV-PB1-2-MinTk were transfected into Huh7 and ARE primary cells as previously described and their activity assessed.

[3] = tested on: AXOL ARE-hepatocytes; assay: Luciferase expression from PBREM promoters in AXOL ARE-hepatocytes, induction by CITCO; details: 1 μM CITCO
[4] = tested on: Huh7 cells; assay: Luciferase expression from PB1-MinTK construct in Huh7 cells transfected with CAR plasmid, induction by TCPOBOP
Description: • Huh7 cells which are a human liver cell line • DPBS: without CaCl2, without MgCl2 (Gibco, 14190-094) • DMEM (Sigma, D6546) • FBS (Sigma, F9665) • Pen-Strep (Sigma, P4333) • Promega Fugene-HD (E2311) • TCPOBOP (Sigma, T2320) • CITCO (Cayman Chemicals Company, 16027) • pcDNA6 plasmid which contains the β-galactosidase gene used as internal control for transfection efficiency (Thermofisher, V22020) • mouse CAR expression plasmid from Jouan et al, 2016 (BioCat GmbH, EX-Z4288-M51-10-GC). This was used as Huh7 is CAR deficient. • β-galactosidase substrate solution (Thermofisher, 75707/75710) • Pierce BCA kit (23225) • LARII (Dual Luciferase Reporter 1000 assay system, Promega, E1980) • EPO ELISA kit (Abcam, ab119522) Method: Day 1 • Cells were seeded onto a 48 well plate at a density of 25,000 cells/300 μl Day 2 • On the day of transfection, DNA to be transfected (CAR plasmid/PB1-MinTK operably linked with luciferase or EPO/pcDNA6 plasmid for internal control) was diluted to a 100 ng/μl stock solution. Per 48 Well Transfection: • 45 ng of DNA (15 ng of each plasmid, pcDNA6, CAR and test plasmid) was mixed with 4.1 μl of Optimem medium. • 0.5 μl of Fusion HD was mixed with 4 μl of Optimem medium. • These 2 solutions were mixed and incubated at room temperature for 15 minutes. • The final solution was then added to the well drop wise. • 3 hrs after transfection, the inducer TCPOBOP was added to the appropriate wells at the indicated concentration. Day 3 • 24 hrs after induction the media was removed from the cells. • The cells were washed once in 300 μl of DPBS • Cells were lysed using 100 μl of passive lysis buffer and incubation with rocking for 15 minutes • The cell debris was pelleted by centrifugation of the plate at max speed in a benchtop centrifuge for 1 min • For luciferase, 10 μl sample was transferred into white 96-well plate and luminescence measured by injection of 50 μl of LARII substrate. • β-galactosidase activity was measured as per manufacturer's instructions (Mammalian β-Galactosidase Assay Kit, 75707/75710, Thermo Scientific) using 25 μl of lysate. 25 μl of lysate was transferred into a microplate well and mixed with 25 μl of β-galactosidase Assay Reagent, equilibrated to room temperature. The mixture was incubated at 37° C. for 30 min and absorbance measured at 405 nm. • Protein concentration was measured as per manufacturer's instructions (Pierce™ BCA Protein Assay Kit, 23225/23227, Thermo Scientific) using 25 μl of lysate. 25 μl of lysate was transferred into a microplate well and mixed with 200 μl of working solution. The mixture was incubated at 37° C. for 30 min, cooled to room temperature and then absorbance measured around 562 nm. The protein concentration was calculated with respect to protein standard curve prepared from assaying standards with known protein concentration.
Luciferase readouts were normalised to both β-galactosidase and protein concentration in the lysate to produce normalised relative luminometer units (RLUs).
To compare across experiments the strength of the promoters was compared to CMV-IE promoter which was driving the same gene as the PBREM-containing constructs, which is included in every experiment.
The PB1-MinTK construct was cloned into the vector pGL4.10 using the KpnI and NcoI restriction sites. This places the promoters directly upstream of the firefly luciferase reporter gene. The PB1-MinTK construct contains the 51 bp enhancer and the MinTK minimal promoter from Herpes Thymidine kinase gene.

B1: PB1-MinTK: promoter: single mouse PBREM element and MinTK minimal promoter, SEQ ID NO: 7 (nucleic acid)
DNA: TCTGTACTTTCCTGACCTTGGCACAGTGCCACCATCAACTTGCCTGACACCGATCCGGCCCCGCCCAGCGTCTTGTCATTGGCGAATTCGAACACGCAGATGCAGTCGGGGCGGCGCGGTCCGAGGTCCACTTCGCATATTAAGGTGACGCGTGTGGCCTCGAACACCGAGCGACCCTGCAGCGACCCGCTTAACAGCGTCAACAGCGTGCCGCAGATCTCGAGGAGCTTGGCGAGATTTTCAGGAGCTAAGGAAGCTAAAC
modifications: PB1-MinTK
[1]; CITCO (1 μM)
  luciferase expression with CITCO: inducible
[1]; CITCO withdrawal
  activity of the promoter after removal of CITCO: almost baseline levels
[2]
  induction of luciferase expression across pGL4.10 and pAAV vectors and cell types: comparable across vectors and cell types
[3]
  expression level compared to CMV-IE: 20%
[3]; readout 24 hrs after induction
  induction of luciferase expression: around 7 fold
[4]; 50 nM or 150 nM TCPOBOP, 24 hrs after induction
  induction of the promoter (luciferase): up to 6 fold
[4]; 250 nM TCPOBOP
  response of the promoter (luciferase): did not illicit a response
[4]; TCPOBOP induced, one PBREM element with MinTK
  luciferase expression as ratio of CMV-IE promoter: 40%
[4]; cells treated with vehicle (DMSO)
  luciferase activity from the promoter (leaky expression): very little measurable luciferase activity
[4]; no CAR transfected, 150 nM TCPOBOP
  luciferase activity: no measurable activity
[4]; presence of CAR and 150 nM TCPOBOP
  luciferase expression: high
